The text below walks through data of patent publication US20090048164A1.

No end group written: not given here. FLAG = FLAG tag

For assay [1], the target named is mouse Mcl-1 with truncations of 151 amino acid residues at its N-terminus and 23 residues at its C-terminus (mouse) (UniProt P97287). Kind of assay: competition phage ELISA. Background: In an ELISA, binding on a coated surface is turned into a signal by an enzyme label.
Assay [2] addresses Recombinant human Bcl-xL with a 25 amino acid truncation of its C-terminus (human) (UniProt Q07817). As to the kind of experiment: competition phage ELISA.

As a reminder, the IC50 is the concentration needed to halve the response being measured.

Recombinant human Bcl-xL with a 25 amino acid truncation of its C-terminus (human), sequence (Q07817 1-208): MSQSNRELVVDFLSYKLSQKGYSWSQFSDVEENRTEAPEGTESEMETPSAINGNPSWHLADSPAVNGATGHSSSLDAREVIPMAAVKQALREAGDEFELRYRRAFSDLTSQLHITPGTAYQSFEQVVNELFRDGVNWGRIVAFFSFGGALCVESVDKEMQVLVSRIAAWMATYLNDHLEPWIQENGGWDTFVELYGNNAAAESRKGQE
mouse Mcl-1 with truncations of 151 amino acid residues at its N-terminus and 23 residues at its C-terminus (mouse), sequence (P97287 152-308): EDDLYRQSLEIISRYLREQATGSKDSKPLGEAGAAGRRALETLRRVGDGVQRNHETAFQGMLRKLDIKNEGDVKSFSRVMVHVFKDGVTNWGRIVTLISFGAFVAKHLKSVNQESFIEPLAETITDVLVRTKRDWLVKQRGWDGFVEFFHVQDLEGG

In assay [1], PSSTMGQVGRQLAIAGDDINRRYDSE [Bak BH3 I15A, phage-displayed] registered a Fold/wt of 25 fold and an IC50 of 517 nM.

On to {FLAG}-RAELPPEFAAQLRAIGDKVYCTWSAP-{GGGT-g3(249-406)} [mNoxaA BH3 K14A, phage-displayed], for which, in assay [1], the Fold/wt was 1 fold and the IC50 is 37 nM.

Consider NLWAAQRYGRELRAMSDEFVDSFKKG [Bad BH3 R14A, phage-displayed], for which, in assay [2], the Fold/wt stood at 2 fold and the 50% inhibitory concentration (IC50) was 4 nM.

In assay [1], {FLAG}-RAELPPEFAAQLRKIGDAVYCTWSAP-{GGGT-g3(249-406)} [mNoxaA BH3 K18A, phage-displayed] had a Fold/wt of under 1 fold and an IC50 of 11 nM.

With {FLAG}-RAELPPEFAAALRKIGDKVYCTWSAP-{GGGT-g3(249-406)} [mNoxaA BH3 Q11A, phage-displayed], in assay [1], the Fold/wt was 1 fold and the IC50 came to 22 nM.

In assay [1], {FLAG}-RAEAPPEFAAQLRKIGDKVYCTWSAP-{GGGT-g3(249-406)} [mNoxaA BH3 L4A, phage-displayed] registered a Fold/wt of 1 fold and a half-inhibitory concentration (IC50) of 24 nM.

With NLWAEQRYGRELRRMSDEFVDSFKKG [Bad BH3 A5E, phage-displayed], in assay [2], the Fold/wt was determined as 5 fold and the IC50 was determined as 12 nM.

In assay [1], PSSTMGQVGRQLEIIGDDINRRYDSE [Bak BH3 A13E, phage-displayed] returned a Fold/wt of 17 fold and an IC50 of 356 nM.

In assay [1], {FLAG}-RAELPPEFAEQLRKIGDKVYCTWSAP-{GGGT-g3(249-406)} [mNoxaA BH3 A10E, phage-displayed] returned a Fold/wt of 1 fold and a 50% inhibitory concentration (IC50) of 43 nM.

Consider {FLAG}-REELPPEFAAQLRKIGDKVYCTWSAP-{GGGT-g3(249-406)} [mNoxaA BH3 A2E, phage-displayed], for which, in assay [1], the Fold/wt was determined as 1 fold and the 50% inhibitory concentration (IC50) was determined as 22 nM.

In assay [1], PSSTMGQAGRQLAIIGDDINRRYDSE [Bak BH3 V8A, phage-displayed] returned a Fold/wt of 4 fold and an IC50 of 79 nM.

In assay [1], {FLAG}-RAELPPEFAAQARKIGDKVYCTWSAP-{GGGT-g3(249-406)} [mNoxaA BH3 L12A, phage-displayed] came in with a Fold/wt of 2 fold and an IC50 of 67 nM.

Consider {FLAG}-RAELPPEFAAQLRKIGDKVYCAWSAP-{GGGT-g3(249-406)} [mNoxaA BH3 T22A, phage-displayed], for which, in assay [1], the Fold/wt was under 1 fold and the concentration for half-maximal inhibition (IC50) amounted to 14 nM.

On to PSSTMGQVGRQLAIIGDDANRRYDSE [Bak BH3 I19A, phage-displayed], for which, in assay [1], the Fold/wt amounted to 9 fold and the 50% inhibitory concentration (IC50) came to 185 nM.

As to ALWAAQRYGRELRRMSDEFVDSFKKG [Bad BH3 N1A, phage-displayed], in assay [2], the Fold/wt came to 1 fold and the IC50 was 2 nM.

Turning to NLWAAQRYGRELRRASDEFVDSFKKG [Bad BH3 M15A, phage-displayed], in assay [2], the Fold/wt turned out to be 3 fold and the IC50 was 6 nM.

In assay [1], RAELPPEFAAQLRKIGDKVYCTWSAP-{GGGT-g3(249-406)} (not fully specified (N-terminus)) [mNoxaA BH3 wild type, phage-displayed] gave a Fold/wt of 1 fold and an IC50 of 39 nM.

NLAAAQRYGRELRRMSDEFVDSFKKG [Bad BH3 W3A, phage-displayed]: in assay [2], the Fold/wt came out at 1 fold and the IC50 turned out to be 3 nM.

As to {FLAG}-RAELPPEFEAQLRKIGDKVYCTWSAP-{GGGT-g3(249-406)} [mNoxaA BH3 A9E, phage-displayed], in assay [1], the Fold/wt worked out at 2 fold and the IC50 turned out to be 76 nM.

Regarding NLWEAQRYGRELRRMSDEFVDSFKKG [Bad BH3 A4E, phage-displayed], in assay [2], the Fold/wt turned out to be 2 fold and the 50% inhibitory concentration (IC50) came to 4 nM.

{FLAG}-RAELPPAFAAQLRKIGDKVYCTWSAP-{GGGT-g3(249-406)} [mNoxaA BH3 E7A, phage-displayed]: in assay [1], the Fold/wt came to 1 fold and the IC50 worked out at 43 nM.

In the case of RAELPPEFAAQLRKIGDKVACTWSAP-{GGGT-g3(249-406)} (not fully specified (N-terminus)) [mNoxaA BH3 Y20A, phage-displayed], in assay [1], the Fold/wt stood at 1 fold and the concentration for half-maximal inhibition (IC50) was 32 nM.

Consider NLWAAQRAGRELRRMSDEFVDSFKKG [Bad BH3 Y8A, phage-displayed], for which, in assay [2], the Fold/wt was determined as 3 fold and the IC50 was determined as 7 nM.

In assay [1], {FLAG}-RAELPPEAAAQLRKIGDKVYCTWSAP-{GGGT-g3(249-406)} [mNoxaA BH3 F8A, phage-displayed] displayed a Fold/wt of 1 fold and an IC50 of 24 nM.

Consider NLWAAQRYGRELRRMSAEFVDSFKKG [Bad BH3 D17A, phage-displayed], for which, in assay [2], the Fold/wt amounted to 7 fold and the IC50 was found to be 16 nM.

Turning to NLWAAARYGRELRRMSDEFVDSFKKG [Bad BH3 Q6A, phage-displayed], in assay [2], the Fold/wt turned out to be 2 fold and the concentration for half-maximal inhibition (IC50) turned out to be 3 nM.

For NLWAAQAYGRELRRMSDEFVDSFKKG [Bad BH3 R7A, phage-displayed], in assay [2], the Fold/wt was determined as 2 fold and the IC50 is 4 nM.

In assay [1], {FLAG}-RAELPPEFAAQLAKIGDKVYCTWSAP-{GGGT-g3(249-406)} [mNoxaA BH3 R13A, phage-displayed] returned a Fold/wt of 1 fold and a concentration for half-maximal inhibition (IC50) of 57 nM.

Take RAELPPEFAAQLRKIGDKVYCTASAP-{GGGT-g3(249-406)} (not fully specified (N-terminus)) [mNoxaA BH3 W23A, phage-displayed]: in assay [1], the Fold/wt was 2 fold and the IC50 was determined as 69 nM.

For the molecule NAWAAQRYGRELRRMSDEFVDSFKKG [Bad BH3 L2A, phage-displayed], in assay [2], the Fold/wt stood at 2 fold and the IC50 came to 4 nM.

For NLWAAQRYGRELARMSDEFVDSFKKG [Bad BH3 R13A, phage-displayed], in assay [2], the Fold/wt was found to be 1 fold and the 50% inhibitory concentration (IC50) is 3 nM.

In the case of NLWAAQRYGRELRRMSDAFVDSFKKG [Bad BH3 E18A, phage-displayed], in assay [2], the Fold/wt stood at 2 fold and the IC50 turned out to be 4 nM.

In assay [1], {FLAG}-RAELPPEFAAQLRKIGDKVYCTWSEP-{GGGT-g3(249-406)} [mNoxaA BH3 A25E, phage-displayed] showed a Fold/wt of 1 fold and an IC50 of 33 nM.

Consider {FLAG}-RAALPPEFAAQLRKIGDKVYCTWSAP-{GGGT-g3(249-406)} [mNoxaA BH3 E3A, phage-displayed], for which, in assay [1], the Fold/wt is 1 fold and the half-inhibitory concentration (IC50) stood at 30 nM.

In assay [1], QEDIIRNIARHLAQAGDSMDRSIPPG [Bid BH3 V15A, phage-displayed] showed a Fold/wt of 2 fold and a 50% inhibitory concentration (IC50) of 245 nM.

As to {FLAG}-RAELAPEFAAQLRKIGDKVYCTWSAP-{GGGT-g3(249-406)} [mNoxaA BH3 P5A, phage-displayed], in assay [1], the Fold/wt is 1 fold and the IC50 was 20 nM.

In assay [1], {FLAG}-RAELPAEFAAQLRKIGDKVYCTWSAP-{GGGT-g3(249-406)} [mNoxaA BH3 P6A, phage-displayed] showed a Fold/wt of under 1 fold and a half-maximal inhibitory concentration (IC50) of 8 nM.

For NLWAAQRYGRELRRMSDEAVDSFKKG [Bad BH3 F19A, phage-displayed], in assay [2], the Fold/wt came out at 12 fold and the concentration for half-maximal inhibition (IC50) came to 27 nM.

On to PSSTMGQVERQLAIIGDDINRRYDSE [Bak BH3 G9E, phage-displayed], for which, in assay [1], the Fold/wt came out at 21 fold and the half-inhibitory concentration (IC50) was 438 nM.

As for {FLAG}-RAELPPEFAAQLRKIGDKVYATWSAP-{GGGT-g3(249-406)} [mNoxaA BH3 C21A, phage-displayed], in assay [1], the Fold/wt turned out to be 1 fold and the IC50 is 19 nM.

NLWAAQRYGAELRRMSDEFVDSFKKG [Bad BH3 R10A, phage-displayed]: in assay [2], the Fold/wt was found to be 1 fold and the 50% inhibitory concentration (IC50) was determined as 3 nM.

In assay [1], {FLAG}-RAELPPEFAAQLRKIGDKVYCTWAAP-{GGGT-g3(249-406)} [mNoxaA BH3 S24A, phage-displayed] gave a Fold/wt of under 1 fold and an IC50 of 13 nM.

In assay [1], PSSTMGQVGRQAAIIGDDINRRYDSE [Bak BH3 L12A, phage-displayed] had a Fold/wt of 20 fold and an IC50 of 414 nM.

Consider {FLAG}-AAELPPEFAAQLRKIGDKVYCTWSAP-{GGGT-g3(249-406)} [mNoxaA BH3 R1A, phage-displayed], for which, in assay [1], the Fold/wt was determined as 1 fold and the IC50 is 20 nM.
